T1: recombinant human OX40L (extracellular domain with FLAG peptide motif and isoleucine zipper motif) (human, UniProt P23510 51-183, biotinylated in the HTRF assays (sites not given))
T1 sequence (looked up): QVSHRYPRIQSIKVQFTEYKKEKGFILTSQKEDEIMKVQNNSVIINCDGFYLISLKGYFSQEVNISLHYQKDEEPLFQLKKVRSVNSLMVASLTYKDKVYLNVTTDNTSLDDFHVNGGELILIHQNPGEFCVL


What was measured:
[1] = target: T1, recombinant human OX40L (extracellular …); experiment: cell-based or functional assay
[2] = target: T1, recombinant human OX40L (extracellular …); experiment: HTRF ligand/receptor neutralisation; competitor OX40RFc-AF647 on biotinylated hOX40L; mean of three experiments, SEM +/-0.17
Experimental: (§1) Profiling of Fully Human Recombinant Anti-OX40L Antibodies in HTRF Ligand/Receptor Neutralisation Assay In order to determine whether recombinantly expressed fully human purified IgG inhibit human OX40L binding to OX40RFc the following method was carried out. Fully human purified IgG or other inhibitor were tested in order to establish the clone potency as measured by IC$50$ values in the assay. Antibodies recombinantly expressed and purified were titrated by diluting in HTRF assay buffer and 5 μL of this titration transferred to a white 384 well low volume non-binding surface polystyrene plate (Greiner). Biotinylated OX40L was diluted in HTRF assay buffer to a working concentration of 2.4 nM and 5 μL added. OX40RFc directly labelled with AF647 was then diluted to working concentration of 10 nM and 5 μL added. […] Plates were covered, protected from light and incubated at room temperature for 3 hrs prior to reading time resolved fluorescence at 620 nm and 665 nm emission wavelengths using an EnVision plate reader (Perkin Elmer). Data were analysed by calculating delta F as described in Equation 4 and percentage of receptor for each sample according to Equation 5 or in some cases Equation 6. IC$50$ values were determined using GraphPad Prism software by curve fitting using a four-parameter logistic equation (Equation 7) (FIG. 1).

[3] = target: T1, recombinant human OX40L (extracellular …); experiment: HTRF ligand/receptor neutralisation; competitor OX40RFc-AF647 on biotinylated hOX40L; mean of three experiments, SEM +/-0.04
Experimental: as §1

[4] = target: T1, recombinant human OX40L (extracellular …); experiment: SPR (ProteOn XPR36), apparent affinity, antibody captured on anti-mouse IgG, hOX40L at 256 nM, 1:1 model, 25 C
Experimental: SPR analysis was carried out using the ProteOn™ XPR36 Array System (BioRad). Anti-mouse IgG (GE Healthcare BR-1008-38) was immobilised on a GLM biosensor surface using amine coupling, the surface was then blocked using 1 M ethanolamine. Test antibodies were captured on this surface and recombinant hOX40L (human and rhesus) were used at a single concentration of 256 nM, binding sensorgrams were double referenced using a buffer injection (i.e. 0 nM) to remove baseline drift and injection artefacts. Apparent affinities for the OX40L-antibody interaction were determined using the 1:1 model inherent to the ProteOn XPR36 analysis software. The assay was run using HBS-EP (Teknova) as running buffer and carried out at 25° C.

| Binder | Primary T-cell Assay IC50 nM (recombinant OX40L induced IL2 release from primary isolated T-cells) [1] [nM] | IC50 [2] [nM] | IC50 [3] [nM] | Kd [4] [nM] |
| --- | --- | --- | --- | --- |
| 10A07 (human) (antibody, V domains shown, also called 10A7; mAb 10A7) VH: EVQLVESGGVLVQPGGSLRLSCAASGFTFSSYIMTWVRQAPGKGLEWVSGISGSGGGTYYADSMKGRFTISRDNSKNTLYLQMNSLRVEDTAVYYCAKDRLGPITLVRGGYYYGMDVWGQGTTVTVSS VL: DIQMTQSPSSLSASVGDRVTITCRASQSISDYLNWYQQKPGKAPKFLIYAASSLQSGVPSRFSGSGSGTDFTLTVSSLQPEDFATYYCQQSYSTPRTFGQGTRVEIK | 0.83 | 1.2 |  |  |
| 2D10 (human) (antibody, human IgG4 S228P, kappa, V domains shown, Recombinant fully human IgG4-PE (Ser228Pro, Leu235Glu) with a human kappa light chain; also called 02D10; 2D10 IgG4PE) VH: EVQLVESGGGLVQPGGSLRLSCAASGFTFSNYAMNWVRQAPGKGLEWVSTISGSGGATRYADSVKGRFTISRDNSRNTVYLQMNSLRVEDTAVFYCTKDRLIMATVRGPYYYGMDVWGQGTTVTVSS VL: DIQMTQSPSSLSASVGDRVTITCRASQSISSYLNWYQQKPGKAPNLLIYAASSLQSGVPSRFSGSGSETDFTLTISSLQPEDFATYYCQQSHSVSFTFGPGTKVDIKR | 0.81 |  | 0.75 |  |
| 19H01 (hybridoma) (antibody, V domains shown, Murine/human chimeric antibody purified from hybridoma supernatant (human variable domains, mouse constant regions)) VH: not shown VL: DIQMTQSPSSLSASVGDRVTITCRASQGISNYLAWYQQKPGKIPKLLIYAASTLQSGVPSRFSGSGSGTDFTLTISSLQPEDVATYYCQKYNSAPRTFGQGTKVEIK |  |  |  | 2.2 |
| 9H04 (hybridoma) (antibody, V domains shown, Murine/human chimeric antibody purified from hybridoma supernatant (human variable domains, mouse constant regions); also called 09H04) VH: QVQLVESGGGLVKPGGSLRLSCAASRFTLSDYYMTWIRQAPGKGLEWVSYISSSGNTIYYADSVKGRFTISRDNAKNSLYLQMNSLRAEDTAVYYCARDLSGSYWDYYYGMDVWGQGTTVTVSS VL: AIQLTQSPSSLSTSVGDRVTIACRASQGINNALAWYQQKPGKAPKLLIYDASSLESGVPSRFSGSGSGTDFTLTISSLQPEDFATYYCQQFNSYPRTFGQGTKVEIK |  |  |  | 5.3 |

Reference: US9434785
